# Assay results from patent US12630600B2 (MEDIMMUNE LIMITED, priority 2022, dated 2026).
# Starred links: 1 amine or outer side, 2 acyl side, 3 side chain; linkers in the order of their positions; H or OH if unused. Non-standard residues stand in square brackets, D forms with d. Groups on a side chain read outwards from the residue. No end group written: not given here. *: point of attachment. C20 diacid = O=C(O)CCCCCCCCCCCCCCCCCCC(=O)*; C18 diacid = O=C(O)CCCCCCCCCCCCCCCCC(=O)*; γGlu = O=C(O)[C@H](CCC(=O)[*:2])N[*:1]; αMeF = C[C@](N)(Cc1ccccc1)C(=O)O; AEEA = NCCOCCOCC(=O)O; Aib = CC(C)(N)C(=O)O
# Columns and labels:
# human GLP-1 receptor = human GLP-1 receptor (human, UniProt P43220); assay: cell-based or functional assay
# human glucagon receptor = human glucagon receptor (human, UniProt P47871); assay: cell-based or functional assay
hGLP-1R EC50 (pM) (human GLP-1 receptor),hGluc-R EC50 (pM) (human glucagon receptor),Binder
7620 pM,2610 pM,H[Aib]HGS[αMeF]TSDVSK[αMeF]LDSRAAK([AEEA-AEEA-γGlu-C20 diacid])D[αMeF]VQWIANT-NH2 (N-terminus assumed; SMILES CC[C@H](C)[C@H](NC(=O)[C@H](Cc1c[nH]c2ccccc12)NC(=O)[C@H](CCC(N)=O)NC(=O)[C@@H](NC(=O)[C@](C)(Cc1ccccc1)NC(=O)[C@H](CC(=O)O)NC(=O)[C@H](CCCCNC(=O)COCCOCCNC(=O)COCCOCCNC(=O)CC[C@H](NC(=O)CCCCCCCCCCCCCCCCCCC(=O)O)C(=O)O)NC(=O)[C@H](C)NC(=O)[C@H](C)NC(=O)[C@H](CCCNC(=N)N)NC(=O)[C@H](CO)NC(=O)[C@H](CC(=O)O)NC(=O)[C@H](CC(C)C)NC(=O)[C@](C)(Cc1ccccc1)NC(=O)[C@H](CCCCN)NC(=O)[C@H](CO)NC(=O)[C@@H](NC(=O)[C@H](CC(=O)O)NC(=O)[C@H](CO)NC(=O)[C@@H](NC(=O)[C@](C)(Cc1ccccc1)NC(=O)[C@H](CO)NC(=O)CNC(=O)[C@H](Cc1c[nH]cn1)NC(=O)C(C)(C)NC(=O)[C@@H](N)Cc1c[nH]cn1)[C@@H](C)O)C(C)C)C(C)C)C(=O)N[C@@H](C)C(=O)N[C@@H](CC(N)=O)C(=O)N[C@H](C(N)=O)[C@@H](C)O) [Peptide 215]
534 pM,141 pM,H[Aib]HGS[αMeF]TSDVSK[αMeF]LDSRAAK([AEEA-AEEA-γGlu-γGlu-C20 diacid])DFVEWIANT-NH2 (N-terminus assumed; SMILES CC[C@H](C)[C@H](NC(=O)[C@H](Cc1c[nH]c2ccccc12)NC(=O)[C@H](CCC(=O)O)NC(=O)[C@@H](NC(=O)[C@H](Cc1ccccc1)NC(=O)[C@H](CC(=O)O)NC(=O)[C@H](CCCCNC(=O)COCCOCCNC(=O)COCCOCCNC(=O)CC[C@H](NC(=O)CC[C@H](NC(=O)CCCCCCCCCCCCCCCCCCC(=O)O)C(=O)O)C(=O)O)NC(=O)[C@H](C)NC(=O)[C@H](C)NC(=O)[C@H](CCCNC(=N)N)NC(=O)[C@H](CO)NC(=O)[C@H](CC(=O)O)NC(=O)[C@H](CC(C)C)NC(=O)[C@](C)(Cc1ccccc1)NC(=O)[C@H](CCCCN)NC(=O)[C@H](CO)NC(=O)[C@@H](NC(=O)[C@H](CC(=O)O)NC(=O)[C@H](CO)NC(=O)[C@@H](NC(=O)[C@](C)(Cc1ccccc1)NC(=O)[C@H](CO)NC(=O)CNC(=O)[C@H](Cc1c[nH]cn1)NC(=O)C(C)(C)NC(=O)[C@@H](N)Cc1c[nH]cn1)[C@@H](C)O)C(C)C)C(C)C)C(=O)N[C@@H](C)C(=O)N[C@@H](CC(N)=O)C(=O)N[C@H](C(N)=O)[C@@H](C)O) [Peptide 213]
156 pM,93.7 pM,H[Aib]HGS[αMeF]TSDVSK[αMeF]LDSQAAK([AEEA-AEEA-γGlu-γGlu-C18 diacid])DFVEWIANT-NH2 (N-terminus assumed; SMILES CC[C@H](C)[C@H](NC(=O)[C@H](Cc1c[nH]c2ccccc12)NC(=O)[C@H](CCC(=O)O)NC(=O)[C@@H](NC(=O)[C@H](Cc1ccccc1)NC(=O)[C@H](CC(=O)O)NC(=O)[C@H](CCCCNC(=O)COCCOCCNC(=O)COCCOCCNC(=O)CC[C@H](NC(=O)CC[C@H](NC(=O)CCCCCCCCCCCCCCCCC(=O)O)C(=O)O)C(=O)O)NC(=O)[C@H](C)NC(=O)[C@H](C)NC(=O)[C@H](CCC(N)=O)NC(=O)[C@H](CO)NC(=O)[C@H](CC(=O)O)NC(=O)[C@H](CC(C)C)NC(=O)[C@](C)(Cc1ccccc1)NC(=O)[C@H](CCCCN)NC(=O)[C@H](CO)NC(=O)[C@@H](NC(=O)[C@H](CC(=O)O)NC(=O)[C@H](CO)NC(=O)[C@@H](NC(=O)[C@](C)(Cc1ccccc1)NC(=O)[C@H](CO)NC(=O)CNC(=O)[C@H](Cc1c[nH]cn1)NC(=O)C(C)(C)NC(=O)[C@@H](N)Cc1c[nH]cn1)[C@@H](C)O)C(C)C)C(C)C)C(=O)N[C@@H](C)C(=O)N[C@@H](CC(N)=O)C(=O)N[C@H](C(N)=O)[C@@H](C)O) [Peptide 210]
